According to patent US20180141989A1 (BOARD OF REGENTS OF THE UNIVERSITY OF OKLAHOMA, published 2018):
Where no end group is shown, it is not given here.

Key:
[1] = biological target: T1, MBP-RAMP1 ECD-(GS)5-CLR ECD-H6 fusion protein (human, UniProt O60894 24-111; Q16602 29-144); assay: FP competition vs FITC-AM W/W probe, purified ECD fusion
T1 construct: range 24-111;range 29-144; Tethered ECD fusion made in E. coli; used in the FP assay at 15 nM; also called MBP-hRAMP1.24-111-(Gly-Ser)5-hCLR.29-144-H6
Protocol: (§1) Fluorescence polarization peptide binding assay. […] The reactions (50 μL) were incubated for 2 hours at room temperature to reach equilibrium, and the anisotropy was measured in black half-area 96-well plates using a BMG LABTECH's POLARstar® Omega plate reader (Ortenberg, Germany). The reaction buffer was 50 mM HEPES, pH 7.5, 150 mM NaCl, 0.5 mg/ml fatty acid-free BSA, 0.5 mM EDTA, 0.5 mM maltose. KI values were calculated using nonlinear regression fitting of the competition curves to the exact analytical equations of Roehrl et al. (Biochemistry (2004) 43:16056-66) using GraphPad Prism 5.0 (GraphPad Software, San Diego Calif.).
(§2) The large size difference between the MBP-RAMP ECD-CLR ECD fusion proteins (˜65 kDa) and the probe (˜2.5 kDa) ensures a significant anisotropy difference between bound and free states of the probe. […] Kd values for the probe at each of the tethered ECD fusion proteins were determined in equilibrium saturation binding experiments (data not shown), and KI values were determined for unlabeled peptides in equilibrium competition experiments (Table 1; FIGS. 2-5). The data were analyzed according to exact analytical equations using non-linear regression curve fitting in GraphPad Prism 5.0 (GraphPad Software) via user-defined equations.

[2] = biological target: T1, MBP-RAMP1 ECD-(GS)5-CLR ECD-H6 fusion …; assay: FP (anisotropy) competition: displaces FITC-Ahx-AM(37-52)NH2[S45W,Q50W] probe (7 nM) from MBP-RAMP1 ECD-(GS)5-CLR ECD-H6 (15 nM) [A-C) panel B]
Protocol: as §1
as §1, with “Single representative experiments conducted with duplicate samples are shown.” for “Fluorescence polarization peptide binding assay.”, “reactions” for “reactions (50 μL)”

[3] = biological target: T1, MBP-RAMP1 ECD-(GS)5-CLR ECD-H6 fusion …; assay: ratio of FP KI values at the two ECD complexes
Protocol: as §1, §2

[4] = biological target: MBP-RAMP2 ECD [L106R]-(GS)5-CLR ECD-H6 fusion protein (human) (UniProt O60895); assay: FP competition vs FITC-AM W/W probe, purified ECD fusion
[5] = biological target: T1, MBP-RAMP1 ECD-(GS)5-CLR ECD-H6 fusion …; assay: FP (anisotropy) competition: displaces FITC-Ahx-AM(37-52)NH2[S45W,Q50W] probe (7 nM) from MBP-RAMP1 ECD-(GS)5-CLR ECD-H6 (15 nM) [A-C) panel C]
Protocol: as §1
as §1, with “Single representative experiments conducted with duplicate samples are shown.” for “Fluorescence polarization peptide binding assay.”, “reactions” for “reactions (50 μL)”

[6] = biological target: T1, MBP-RAMP1 ECD-(GS)5-CLR ECD-H6 fusion …; assay: FP (anisotropy) competition: displaces FITC-Ahx-AM(37-52)NH2[S45W,Q50W] probe (7 nM) from MBP-RAMP1 ECD-(GS)5-CLR ECD-H6 (15 nM) [I-J) lower graph]
Protocol: as §1

[7] = biological target: T1, MBP-RAMP1 ECD-(GS)5-CLR ECD-H6 fusion …; assay: FP (anisotropy) competition: displaces FITC-Ahx-AM(37-52)NH2[S45W,Q50W] probe (7 nM) from MBP-RAMP1 ECD-(GS)5-CLR ECD-H6 (15 nM) [I-J) upper graph]
Protocol: as §1

[8] = biological target: MBP-RAMP2 ECD [L106R]-(GS)5-CLR ECD-H6 fusion protein (human) (UniProt O60895); assay: FP (anisotropy) competition: displaces FITC-Ahx-AM(37-52)NH2[S45W,Q50W] probe (7 nM) from MBP-RAMP2 ECD[L106R]-(GS)5-CLR ECD-H6 (110 nM) [I-K) panel J]
[9] = biological target: T1, MBP-RAMP1 ECD-(GS)5-CLR ECD-H6 fusion …; assay: FP (anisotropy) competition: displaces FITC-Ahx-AM(37-52)NH2[S45W,Q50W] probe (7 nM) from MBP-RAMP1 ECD-(GS)5-CLR ECD-H6 (15 nM) [F-H) panel H]
Protocol: as §1

[10] = biological target: MBP-RAMP2 ECD [L106R]-(GS)5-CLR ECD-H6 fusion protein (human) (UniProt O60895); assay: FP (anisotropy) competition: displaces FITC-Ahx-AM(37-52)NH2[S45W,Q50W] probe (7 nM) from MBP-RAMP2 ECD[L106R]-(GS)5-CLR ECD-H6 (110 nM) [I-K) panel I]
[11] = biological target: T1, MBP-RAMP1 ECD-(GS)5-CLR ECD-H6 fusion …; assay: FP (anisotropy) competition: displaces FITC-Ahx-AM(37-52)NH2[S45W,Q50W] probe (7 nM) from MBP-RAMP1 ECD-(GS)5-CLR ECD-H6 (15 nM) [D-E) panel E]
Protocol: as §1

[12] = biological target: T1, MBP-RAMP1 ECD-(GS)5-CLR ECD-H6 fusion …; assay: FP (anisotropy) competition: displaces FITC-Ahx-AM(37-52)NH2[S45W,Q50W] probe (7 nM) from MBP-RAMP1 ECD-(GS)5-CLR ECD-H6 (15 nM) [A-C) panel C]; remark: listed apart in the source
Protocol: as §1

[13] = biological target: T1, MBP-RAMP1 ECD-(GS)5-CLR ECD-H6 fusion …; assay: FP (anisotropy) competition: displaces FITC-Ahx-AM(37-52)NH2[S45W,Q50W] probe (7 nM) from MBP-RAMP1 ECD-(GS)5-CLR ECD-H6 (15 nM) [D-E) panel D]
Protocol: as §1

[14] = biological target: T2, MBP-RAMP1 ECD-(GS)5-CTR ECD-H6 fusion protein (human, UniProt O60894 27-118; P30988 34-141, limits assumed); assay: AlphaLISA competition vs Biotin-AC413 probe, purified AMY1 ECD fusion
T2 construct: extracellular domain; CTR-based proteins were produced in HEK293T cells (N-glycosylated); also called RAMP1-CTR ECD; RAMP1-CTR
Protocol: A single representative experiment conducted with duplicate samples is shown. […] The reactions were incubated for 5 hours at room temperature to reach equilibrium, and the luminescence was measured in white 384-well plates using a BMG LABTECH's POLARstar® Omega plate reader (Ortenberg, Germany). The reaction buffer was 50 mM MOPS, pH 7.4, 150 mM NaCl, 7 mg/ml fatty acid-free BSA and the streptavidin-coated donor beads and MBP-antibody coated acceptor beads were at 15 μg/ml each. IC₅₀ values were calculated using nonlinear regression fitting of the competition curves to a three-parameter, one-site competitive binding equation in GraphPad Prism 5.0 (GraphPad Software, San Diego Calif.).

T1 sequence (O60894 other isoform, or with tags, fused parts or gaps limits assumed, form in doubt): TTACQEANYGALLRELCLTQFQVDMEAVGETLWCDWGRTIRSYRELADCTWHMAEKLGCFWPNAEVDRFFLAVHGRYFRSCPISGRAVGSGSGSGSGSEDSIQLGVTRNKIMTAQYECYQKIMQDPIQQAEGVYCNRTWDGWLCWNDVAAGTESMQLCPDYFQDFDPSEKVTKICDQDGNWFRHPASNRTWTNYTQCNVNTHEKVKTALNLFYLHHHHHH
Sequence of MBP-RAMP2 ECD [L106R]-(GS)5-CLR ECD-H6 fusion protein (human) (O60895 other isoform, or with tags, fused parts or gaps L106R L106R): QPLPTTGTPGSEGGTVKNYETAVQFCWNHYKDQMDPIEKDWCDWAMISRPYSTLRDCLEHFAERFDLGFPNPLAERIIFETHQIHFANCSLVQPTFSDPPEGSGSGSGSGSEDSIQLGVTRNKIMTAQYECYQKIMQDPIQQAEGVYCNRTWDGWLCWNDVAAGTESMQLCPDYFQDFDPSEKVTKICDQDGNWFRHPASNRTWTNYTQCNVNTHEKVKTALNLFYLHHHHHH
T2 sequence (O60894 other isoform, or with tags, fused parts or gaps limits assumed): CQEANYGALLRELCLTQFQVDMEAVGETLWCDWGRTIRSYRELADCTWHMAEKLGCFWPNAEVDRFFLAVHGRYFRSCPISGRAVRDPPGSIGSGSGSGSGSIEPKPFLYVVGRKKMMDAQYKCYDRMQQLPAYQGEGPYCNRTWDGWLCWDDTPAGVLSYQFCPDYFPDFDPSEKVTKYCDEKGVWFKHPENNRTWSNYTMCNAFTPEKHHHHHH

Ki [1] [nM] | pKI [1] | Receptor Selectivity (fold, over RAMP2-CLR ECD) [3] [fold] | Ki [4] [nM] | pKI [4] | Binder | other results
2.95 | 8.53 |  |  |  | FVPTDVGPFSF-NH2 [CGRP(27-37)NH2 [N31D, S34P, K35F, A36S]] | IC50 (read off the curve) [2]: ~20 nM
17.6 | 7.75 | 821 | 14500 | 4.84 | FVPTDTGPWGY-NH2 [CGRP(27-37)NH2 [N31D, V32T, S34P, K35W, A36G, F37Y]] | 
8.13 | 8.09 |  |  |  | FVPTDVGPWAF-NH2 [CGRP(27-37)NH2 [N31D, S34P, K35W]] | IC50 (read off the curve) [2]: ~20 nM
1.32 | 8.88 | 245 | 324 | 6.49 | FVPTDVGPWSY-NH2 [CGRP(27-37)NH2 [N31D, S34P, K35W, A36S, F37Y]] | IC50 (read off the curve) [5]: ~20 nM
 |  |  | 6100 | 5.22 | DKKNVAPRSKISPQGY-NH2 [AM(37-52)NH2 [D39K]] | 
 |  |  |  |  | VKDNVAPRWLISPWGF-NH2 (also called AM(37-52)NH2 [D37V, S45W, K46L, Q50W, Y52F]) [AM(37-52) D37V/S45W/K46L/Q50W/Y52F] | IC50 (read off the curve) [6]: ~10 nM
 |  |  |  |  | DKDNVAPRRWIGPWGY-NH2 (also called AM(37-52)NH2 [S45R, K46W, S48G, Q50W]) [AM(37-52) S45R/K46W/S48G/Q50W] | IC50 (read off the curve) [7]: ~100 nM; IC50 (read off the curve) [8]: 700 nM
 |  |  |  |  | DKDNVAPRRWISPWGY-NH2 (also called AM(37-52)NH2 [S45R, K46W, Q50W]) [AM(37-52) S45R/K46W/Q50W] | IC50 (read off the curve) [9]: ~300 nM; IC50 (read off the curve) [10]: 2000 nM
440 | 6.36 | 28 | 12500 | 4.9 | DKDNVAPRTWISPWGY-NH2 [AM(37-52)NH2[S45T, K46W, Q50W]] | 
 |  |  |  |  | DKDNVAPRRLIGPWGY-NH2 (also called AM(37-52)NH2 [S45R, K46L, S48G, Q50W]) [AM(37-52) S45R/K46L/S48G/Q50W] | IC50 (read off the curve) [7]: ~20 nM; IC50 (read off the curve) [8]: 90 nM
 |  |  |  |  | DKDNVAPRRLISPWGY-NH2 (also called AM(37-52)NH2 [S45R, K46L, Q50W]) [AM(37-52) S45R/K46L/Q50W] | IC50 (read off the curve) [9]: ~90 nM; IC50 (read off the curve) [10]: 300 nM
7.94 | 8.1 | 977 | 7760 | 5.11 | DKDNVAPRWMISPWGF-NH2 [AM(37-52)NH2 [S45W, K46M, Q50W, Y52F]] | IC50 (read off the curve) [11]: ~30 nM
 |  |  |  |  | DKDNVAPRRWLGPWGY-NH2 (also called AM(37-52)NH2 [S45R, K46W, I47L, S48G, Q50W]) [AM(37-52) S45R/K46W/I47L/S48G/Q50W] | IC50 (read off the curve) [7]: ~100 nM; IC50 (read off the curve) [8]: 1000 nM
24 | 7.62 | 692 | 16600 | 4.78 | DKDNVAPRWWISPWGF-NH2 [AM(37-52)NH2 [S45W, K46W, Q50W, Y52F]] | IC50 (read off the curve) [11]: ~70 nM
31.6 | 7.5 | 2820 | 89100 | 4.05 | DKDNVAPRSLISPWGF-NH2 [AM(37-52)NH2 [K46L, Q50W, Y52F]] | IC50 (read off the curve) [12]: ~100 nM
25 | 7.61 | 1210 | 30300 | 4.55 | DKFNVAPRSLISPWGF-NH2 [AM(37-52)NH2 [D39F, K46L, Q50W, Y52F]] | IC50 (read off the curve) [13]: ~80 nM
70.8 | 7.15 | 23 | 1660 | 5.78 | DKDNVAPRSLISPWGY-NH2 [AM(37-52)NH2 [K46L, Q50W]] | IC50 (read off the curve) [12]: ~100 nM
82.2 | 7.1 | 22 | 1830 | 5.74 | DKFNVAPRSLISPWGY-NH2 [AM(37-52)NH2 [D39F, K46L, Q50W]] | IC50 (read off the curve) [13]: ~200 nM
1.91 | 8.72 | 2130 | 4070 | 5.39 | DKDNVAPRWLISPWGF-NH2 [AM(37-52)NH2 [S45W, K46L, Q50W, Y52F]] | IC50 (read off the curve) [13]: ~20 nM; IC50 [14]: 16000 nM
